The source of these data is patent publication US6468740.

surface (amide) = not defined here

The first assay deals with monoclonal antibody D32.39. Briefly: solution competition of free peptide against radiolabeled dynorphin B peptide for D32.39.
By IC50 is commonly meant the concentration that inhibits the measured activity by half. A low value points to greater potency. In turn, Ac-RQFKVVT-OH [Ac-RQFKVVT-OH, free peptide] had a concentration for half-maximal inhibition (IC50) of 11 nM.
Same read-out and setting: next, Ac-FKVVT-OH [Ac-FKVVT-OH, free peptide]: 77000 nM.
Still for that read-out and setting: under Ac-RRQFKVVT-OH [Ac-RRQFKVVT-OH, free peptide] stands 3.9 nM.
Turning to Ac-RQFKVVT-NH2 [Ac-RQFKVVT-NH2, free peptide], the concentration for half-maximal inhibition (IC50) amounted to 7.3 nM.
The same measure, in the same setting: next, Ac-QFKVVT-OH [Ac-QFKVVT-OH, free peptide]: 3200 nM.

The target in a further assay is monoclonal antibody D32.39.
Test: not given
The molecule Ac-LRRQ-{surface (amide)} (reading uncertain; also: C-terminus amide-linked to surface) [LRRQ, surface-immobilized peptide] had a Normalized Intensity (%) of 10%.
The same measure, in the same setting: under Ac-FLRRQFKVVT-{surface (amide)} (reading uncertain; also: C-terminus amide-linked to surface) stands 98%.
The same measure, in the same setting: next, Ac-RQFKVVT-{surface (amide)} (reading uncertain; also: C-terminus amide-linked to surface) [RQFKVVT, surface-immobilized peptide]: 99%; Ac-FLRRQ-{surface (amide)} (reading uncertain) [FLRRQ, surface-immobilized peptide]: 8%.
In the case of Ac-FKVVT-{surface (amide)} (reading uncertain) [FKVVT, surface-immobilized peptide], the Normalized Intensity (%) stood at 13%.
The same measure, in the same setting: under Ac-LRRQFKVVT-{surface (amide)} (reading uncertain; also: C-terminus amide-linked to surface) stands 87%; under Ac-LRRQFK-{surface (amide)} (reading uncertain; also: C-terminus amide-linked to surface) [LRRQFK, surface-immobilized peptide], 12%; under Ac-FLRRQF-{surface (amide)} (reading uncertain; also: C-terminus amide-linked to surface) [FLRRQF, surface-immobilized peptide], 8%.
On the same count and under the same terms, under Ac-RRQFKV-{surface (amide)} (reading uncertain; also: C-terminus amide-linked to surface) [RRQFKV, surface-immobilized peptide] stands 16%.
On the same count and under the same terms, next, Ac-RRQFK-{surface (amide)} (reading uncertain; also: C-terminus amide-linked to surface) [RRQFK, surface-immobilized peptide]: 12%.
Turning to Ac-FLRR-{surface (amide)} (reading uncertain) [FLRR, surface-immobilized peptide], the Normalized Intensity (%) turned out to be 6%.
On the same count and under the same terms, next, Ac-FKVV-{surface (amide)} (reading uncertain) [FKVV, surface-immobilized peptide]: 10%; Ac-QFKVV-{surface (amide)} (reading uncertain; also: C-terminus amide-linked to surface) [QFKVV, surface-immobilized peptide]: 17%.
Still for that read-out and setting: next, Ac-QFKVVT-{surface (amide)} (reading uncertain; also: C-terminus amide-linked to surface) [QFKVVT, surface-immobilized peptide]: 28%; Ac-RQFKVV-{surface (amide)} (reading uncertain; also: C-terminus amide-linked to surface) [RQFKVV, surface-immobilized peptide]: 54%; Ac-FLRRQFKV-{surface (amide)} (reading uncertain; also: C-terminus amide-linked to surface) [FLRRQFKV, surface-immobilized peptide]: 14%.
The same measure, in the same setting: next, Ac-RRQFKVVT-{surface (amide)} (reading uncertain; also: C-terminus amide-linked to surface) [RRQFKVVT, surface-immobilized peptide]: 99%; Ac-FLRRQFK-{surface (amide)} (reading uncertain; also: C-terminus amide-linked to surface) [FLRRQFK, surface-immobilized peptide]: 10%; Ac-RRQFKVV-{surface (amide)} (reading uncertain; also: C-terminus amide-linked to surface) [RRQFKVV, surface-immobilized peptide]: 58%.
In the case of Ac-QFKV-{surface (amide)} (reading uncertain; also: C-terminus amide-linked to surface) [QFKV, surface-immobilized peptide], the Normalized Intensity (%) amounted to 11%.
On the same count and under the same terms, next, Ac-LRRQFKVV-{surface (amide)} (reading uncertain; also: C-terminus amide-linked to surface) [LRRQFKVV, surface-immobilized peptide]: 44%; Ac-RRQF-{surface (amide)} (reading uncertain; also: C-terminus amide-linked to surface) [RRQF, surface-immobilized peptide]: 11%; Ac-FLRRQFKVV-{surface (amide)} (reading uncertain; also: C-terminus amide-linked to surface): 37%.
Still for that read-out and setting: under Ac-RQFKV-{surface (amide)} (reading uncertain; also: C-terminus amide-linked to surface) [RQFKV, surface-immobilized peptide] stands 16%; under Ac-KVVT-{surface (amide)} (reading uncertain; also: C-terminus amide-linked to surface) [KVVT, surface-immobilized peptide], 11%.
Ac-LRRQF-{surface (amide)} (reading uncertain; also: C-terminus amide-linked to surface) [LRRQF, surface-immobilized peptide] yielded a Normalized Intensity (%) of 10%.
Still for that read-out and setting: under Ac-RQFK-{surface (amide)} (reading uncertain; also: C-terminus amide-linked to surface) [RQFK, surface-immobilized peptide] stands 13%; under Ac-LRRQFKV-{surface (amide)} (reading uncertain; also: C-terminus amide-linked to surface) [LRRQFKV, surface-immobilized peptide], 16%.

The target of another assay is monoclonal antibody D32.39.
Test: not given
The source holds these as a separate data set.
Molecule Ac-FLRRQFKVVT-{surface (amide)} (reading uncertain; also: C-terminus amide-linked to surface) showed a relative signal of 100%.
